Article PMC11055865, “Mechanism of DNA unwinding by MCM8-9 in complex with HROB” (Nature Communications, 2023)

B1: MCM8-9 complex (FLAG-tagged MCM8 and MBP-tagged MCM9), wild type (complex)
chain 1: MNGEYRGRGFGRGRFQSWKRGRGGGNFSGKWREREHRPDLSKTTGKRTSEQTPQFLLSTKTPQSMQSTLDRFIPYKGWKLYFSEVYSDSSPLIEKIQAFEKFFTRHIDLYDKDEIERKGSILVDFKELTEGGEVTNLIPDIATELRDAPEKTLACMGLAIHQVLTKDLERHAAELQAQEGLSNDGETMVNVPHIHARVYNYEPLTQLKNVRANYYGKYIALRGTVVRVSNIKPLCTKMAFLCAACGEIQSFPLPDGKYSLPTKCPVPVCRGRSFTALRSSPLTVTMDWQSIKIQELMSDDQREAGRIPRTIECELVHDLVDSCVPGDTVTITGIVKVSNAEEGSRNKNDKCMFLLYIEANSISNSKGQKTKSSEDGCKHGMLMEFSLKDLYAIQEIQAEENLFKLIVNSLCPVIFGHELVKAGLALALFGGSQKYADDKNRIPIRGDPHILVVGDPGLGKSQMLQAACNVAPRGVYVCGNTTTTSGLTVTLSKDSSSGDFALEAGALVLGDQGICGIDEFDKMGNQHQALLEAMEQQSISLAKAGVVCSLPARTSIIAAANPVGGHYNKAKTVSENLKMGSALLSRFDLVFILLDTPNEHHDHLLSEHVIAIRAGKQRTISSATVARMNSQDSNTSVLEVVSEKPLSERLKVVPGETIDPIPHQLLRKYIGYARQYVYPRLSTEAARVLQDFYLELRKQSQRLNSSPITTRQLESLIRLTEARARLELREEATKEDAEDIVEIMKYSMLGTYSDEFGNLDFERSQHGSGMSNRSTAKRFISALNNVAERTYNNIFQFHQLRQIAKELNIQVADFENFIGSLNDQGYLLKKGPKVYQLQTM
chain 2: not shown
notes: MCM8, human; vector pFB-FLAG-MCM8; MCM9, human; vector pFB-MBP-MCM9; Major species is a heterodimer; tetramers and hexamers are also present; also called MCM8-9 heterodimer; dimer-rich MCM8-9; source: MBP tag not cleaved; for the amylose pull-down captured from Sf9 lysate on amylose resin and washed; not shown: FLAG, N-terminal, kept; MBP, N-terminal, kept

Legend:
[1] = target: B1; experiment: pull-down; MBP-MCM9/FLAG-MCM8 (or pMCM8-9, with or without λ-phosphatase treatment on the resin) immobilized on amylose resin from Sf9 lysate and washed; 1 µg wild type or mutant HROB in 50 mM Tris-HCl pH 7.5, 3 mM EDTA, 100 mM NaCl, 1 h at 4 °C; maltose elution, western blotting; conditions: both partners purified
[2] = target: the molecule itself; experiment: mass photometry; protein alone in solution, no DNA; 50-200 nM final protein in 50 mM Tris-HCl pH 7.5, 100 mM NaCl; oligomeric state of MCM8-9 unchanged with ATP-γ-S

Binder	binding result [1]	binding result [2]
HROB-L405D (natural protein, human, UniProt Q8N3J3-4 1-646, looked up, HROB, human; numbers count on: isoform 1 (Q8N3J3-1); not shown: FLAG, C-terminal, kept) MACSLQKLFAVEEEFEDEDFLSAVEDAENRFTGSLPVNAGRLRPVSSRPQETVQAQSSRLLLLHPTAPSEALGLPDLDLCLPASSTPSADSRPSCIGAAPLRPVSTSSSWIGNQRRVTVTEVLREPARPQSSALHPLLTFESQQQQVGGFEGPEQDEFDKVLASMELEEPGMELECGVSSEAIPILPAQQREGSVLAKKARVVDLSGSCQKGPVPAIHKAGIMSAQDESLDPVIQCRTPRPPLRPGAVGHLPVPTALTVPTQQLHWEVCPQRSPVQALQPLQAARGTIQSSPQNRFPCQPFQSPSSWLSGKAHLPRPRTPNSSCSTPSRTSSGLFPRIPLQPQAPVSSIGSPVGTPKGPQGALQTPIVTNHLVQLVTAASRTPQQPTHPSTRAKTRRFPGPAGIDPHQQSGRSLEDIMVSAPQTPTHGALAKFQTEIVASSQASVEEDFGRGPWLTMKSTLGLDERDPSCFLCTYSIVMVLRKAALKQLPRNKVPNMAVMIKSLTRSTMDASVVFKDPTGEMQGTVHRLLLETCQNELKPGSVLLLKQIGVFSPSLRNHYLNVTPNNLVHIYSPDSGDGSFLKPSQPFPKDSGSFQHDVAAKPEEGFRTAQNLEAEASPEEELPEADDLDGLLSELPEDFFCGTSS	binds	
B1		binds
